The supplement of paper PMC9732359
± gives the uncertainty stated by the source.

Test: protein stability index of a GFP-peptide fusion (yeast GPS) (PSI 1-4); higher = more stable; sorted into four equal gates, so the index is relative within each strain
In short: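 Mid-log yeast cultures in leucine-free medium, carrying a pooled plasmid library, were sorted into four equal gates by their GFP/Cherry fluorescence ratio. Each plasmid expressed Cherry along with GFP fused upstream of a tiled 17-residue yeast protein peptide. Plasmids recovered from each gate were PCR-amplified and Illumina-sequenced, with reads assigned to strains by barcodes. The protein stability index was obtained by summing each gate's read frequency weighted by its gate number.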

Row | Sequence | protein stability index (doa10∆) | protein stability index (pdr5∆) | protein stability index (san1∆) | protein stability index (ubr1∆)
1 | ILLAGRFRGKRVVYLKH [RPL6A] | 1.69 ± 0.078 | 2.17 ± 0.061 | 2.04 ± 0.1 | 2.12 ± 0.056
2 | AISTDKINPFGFEQVKI [RRI2] | 2.75 ± 0.056 | 2.94 ± 0.05 | 2.72 ± 0.061 | 2.86 ± 0.061
3 | MVGLVDPDKLKPNDLVG [RPT5] | 2.87 ± 0.097 | 2.94 ± 0.14 | 2.94 ± 0.062 | 2.75 ± 0.069
4 | LVFILAVVGNNMLLDPA [RRP42] | 1.56 ± 0.088 | 1.39 ± 0.076 | 1.94 ± 0.12 | 1.81 ± 0.063
5 | SKRPQLGEIPNPMKKHK [SIR4] | 2.44 ± 0.075 | 2.53 ± 0.059 | 2.23 ± 0.089 | 2.69 ± 0.079
6 | NIKLLNNRMGSYDCTGV [POP1] | 2.85 ± 0.078 | 2.8 ± 0.059 | 2.83 ± 0.071 | 3 ± 0.042
7 | FGHLKLALPVFHIGYFK [RPO31] | 1.17 ± 0.073 | 1.22 ± 0.062 | 1.24 ± 0.13 | 1.13 ± 0.043
8 | GMGGGMPDMNEMMKMMQ [SRP54] | 3.17 ± 0.21 | 3.51 ± 0.23 | 3.58 ± 0.083 | 3.35 ± 0.081
9 | HLHDAVFVNTGLQNVRK [SWP82] | 2.99 ± 0.14 | 2.84 ± 0.076 | 2.77 ± 0.1 | 2.73 ± 0.088
10 | LSFGTATSDNKTTNTTP [YJL041W/NSP1] | 2.21 ± 0.088 | 3.05 ± 0.083 | 2.24 ± 0.1 | 2.15 ± 0.094
11 | LLRYGGAFTIALAYAGT [RPN2] | 2.02 ± 0.084 | 2.27 ± 0.11 | 1.91 ± 0.12 | 2.24 ± 0.051
12 | KLLFQELLSMNIAPRLR [RET1] | 1.35 ± 0.052 | 1.31 ± 0.049 | 1.35 ± 0.089 | 1.24 ± 0.042
13 | STNHPDYDVSKKASEIS [SRP14] | – | 3 ± 0.24 | – | –
14 | IDLLTFQYGSRLPTFLK [RPP1] | 1.89 ± 0.064 | 1.84 ± 0.052 | 1.6 ± 0.081 | 1.57 ± 0.047
15 | LPLWHLLNRIPRMYHIG [POP1] | 3.06 ± 0.17 | 2.97 ± 0.15 | 2.06 ± 0.21 | 2.63 ± 0.15
16 | TETKRLVVIRFGRKNDR [DIB1] | 2.87 ± 0.11 | 2.24 ± 0.089 | 2.03 ± 0.12 | 2.89 ± 0.065
17 | WFLDHNYIENMNEMCKK [RPN8] | 3.54 ± 0.18 | 3.26 ± 0.12 | 2.93 ± 0.077 | 3.2 ± 0.083
18 | PQAVTITSIMDDLALPY [ITC1] | 2.85 ± 0.077 | 2.98 ± 0.062 | 2.72 ± 0.059 | 3.02 ± 0.046
19 | DIDDILKKGEQKTQELN [ISW2] | 3.31 ± 0.22 | 3.21 ± 0.1 | 3.44 ± 0.099 | 3.56 ± 0.092
20 | CSNESFASIPVSNSISR [SNU114] | 2.55 ± 0.069 | 2.67 ± 0.057 | 2.46 ± 0.078 | 2.7 ± 0.062
21 | STIDANFADKYDEVKKH [RPL8A] | 2.5 ± 0.12 | 3.08 ± 0.11 | 2.92 ± 0.081 | 2.93 ± 0.1
22 | GTTATGTGLFGQQTAQP [YGR119C/NUP57] | 2.91 ± 0.16 | 2.76 ± 0.079 | 3.02 ± 0.18 | 3 ± 0.14
23 | ADGSSYMEQGNNKIITL [SKI6] | 2.79 ± 0.044 | 3.07 ± 0.059 | 2.82 ± 0.04 | 3.015 ± 0.029
24 | DSSTTSSNSQQSTPQPD [ITC1] | 3.04 ± 0.046 | 2.85 ± 0.048 | 2.69 ± 0.044 | 2.95 ± 0.038
25 | TILSSKLSNIWMQRQLI [SRB2] | 2.33 ± 0.11 | 1.96 ± 0.1 | 2.76 ± 0.1 | 2.82 ± 0.051
26 | RSAWNNNNDNDANRNAN [GRR1] | 2.55 ± 0.041 | 2.65 ± 0.036 | 2.62 ± 0.034 | 2.7 ± 0.039
27 | KTDFAKIINKPNELSQI [RPC82] | 3.09 ± 0.12 | 3.13 ± 0.12 | 2.84 ± 0.091 | 3.12 ± 0.14

Row | Sequence | protein stability index (doa10∆) | protein stability index (pdr5∆) | protein stability index (san1∆) | protein stability index (ubr1∆)
28 | FDSVIVENLTVAQECIA [SMC1] | 1.69 ± 0.089 | 1.62 ± 0.11 | 1.84 ± 0.15 | 1.27 ± 0.061
29 | NHWRQNKGRAVYINPSG [BRR2] | 2.97 ± 0.12 | 2.78 ± 0.089 | 2.85 ± 0.074 | 3.16 ± 0.1
30 | LARHLPAELDLRGSLLS [RPC82] | 3.04 ± 0.12 | 3.16 ± 0.11 | 3.01 ± 0.085 | 3.15 ± 0.072
31 | KFKHIDDKYGRKFALEK [SRP72] | 2.59 ± 0.061 | 2.81 ± 0.069 | 3.17 ± 0.054 | 3 ± 0.052
32 | NVAKNMKTPSLTVYLEP [RPO21] | 3.07 ± 0.1 | 2.86 ± 0.085 | 2.94 ± 0.056 | 3 ± 0.1
33 | LADYIVEVLLVNYNSDM [NUT1] | 1.28 ± 0.047 | 1.35 ± 0.037 | 1.39 ± 0.14 | 1.2 ± 0.039
34 | VLLDARDIEKITSLYAL [CDC53] | 1.69 ± 0.038 | 1.99 ± 0.034 | 1.72 ± 0.06 | 2.02 ± 0.029
35 | HPPDFKRMLLSLSEFAR [SNF2] | 1.32 ± 0.038 | 1.33 ± 0.036 | 1.26 ± 0.064 | 1.27 ± 0.023
36 | YLADDIDADSLEDIYTS [RPL5] | 2.68 ± 0.095 | 1.96 ± 0.08 | 2 ± 0.08 | 2.37 ± 0.065
37 | DKDAFIPKLKPAPINSL [SNU114] | 2.81 ± 0.069 | 2.88 ± 0.063 | 2.83 ± 0.05 | 2.84 ± 0.054
38 | VTWRTFTGDFLRRVEER [FAS1] | 2.79 ± 0.12 | 1.78 ± 0.096 | 1.96 ± 0.12 | 1.24 ± 0.15
39 | YQSRGIDAMKAVAEAYN [RPN6] | 2.87 ± 0.088 | 3.1 ± 0.083 | 2.81 ± 0.077 | 2.65 ± 0.045
40 | EINSEDYDNKTKLIGVL [SRP68] | 3.2 ± 0.15 | 3.04 ± 0.18 | 3.25 ± 0.076 | 3.02 ± 0.12
41 | VDDLRPEFAGYSKAAEP [ASC1] | 3.18 ± 0.23 | – | – | 3.67 ± 0.16
42 | LPSHIISTSDVTRIINS [RPL4A] | 2.43 ± 0.033 | 2.66 ± 0.038 | 2.41 ± 0.035 | 2.55 ± 0.029
43 | PLVGKPKTELTKGDSTP [YAR002W/NUP60] | 2.59 ± 0.061 | 2.9 ± 0.058 | 2.46 ± 0.086 | 2.83 ± 0.11
44 | YDSRPLEEDSKKVNGTS [PRP8] | 2.99 ± 0.23 | 3.53 ± 0.17 | 3.21 ± 0.098 | 2.94 ± 0.11
45 | PTGKEEGDGAKAAISFG [YJL041W/NSP1] | 3.37 ± 0.11 | 3.04 ± 0.1 | 3.35 ± 0.1 | 3.38 ± 0.069
46 | VLRKQKRYTVKKALAKA [RPL14A] | 2.08 ± 0.14 | 2.14 ± 0.1 | – | 1.55 ± 0.19
47 | DFKNEESLSEEHASLLV [MED8] | 3.35 ± 0.11 | 3.12 ± 0.16 | 3.08 ± 0.06 | 3.26 ± 0.063
48 | TLSEPVQGELKPTVILK [FAS1] | 2.23 ± 0.054 | 2.22 ± 0.059 | 2.08 ± 0.072 | 1.63 ± 0.038
49 | VLPKIFNSVKSFDEWFN [SNF2] | 2.83 ± 0.18 | 2.43 ± 0.078 | 1.55 ± 0.2 | 1.77 ± 0.077
50 | MDAYSTRPLTLSHGSLE [FAS1] | 3.18 ± 0.11 | 3.15 ± 0.1 | 3.05 ± 0.093 | 3.3 ± 0.087
51 | DQWLEEYKKHFPPNLEK [UBP6] | 2.77 ± 0.081 | 3.06 ± 0.053 | 2.88 ± 0.05 | 2.96 ± 0.067
52 | KKKTTLEDFENFKGLAK [YIL149C/MLP2] | 2.82 ± 0.031 | 2.99 ± 0.03 | 2.957 ± 0.024 | 2.909 ± 0.026
53 | KSLDEQLLLLSDERAKL [LRP1] | 2.73 ± 0.095 | 3.2 ± 0.1 | 2.84 ± 0.046 | 2.91 ± 0.088
